Measured values from paper PMC7545189, “Structural characterization of the ICOS/ICOS-L immune complex reveals high molecular mimicry by therapeutic antibodies” (Nature Communications, 2020).
Blank lines part the entries; values can stand above or below the binder they belong to.

Columns and labels:
[1] = molecular target: T1, human ICOS-L ectodomain (residues 19-248), His-tagged, immobilised on Ni-NTA biosensors (human, UniProt O75144 19-248); experiment: BLI
T1 chain: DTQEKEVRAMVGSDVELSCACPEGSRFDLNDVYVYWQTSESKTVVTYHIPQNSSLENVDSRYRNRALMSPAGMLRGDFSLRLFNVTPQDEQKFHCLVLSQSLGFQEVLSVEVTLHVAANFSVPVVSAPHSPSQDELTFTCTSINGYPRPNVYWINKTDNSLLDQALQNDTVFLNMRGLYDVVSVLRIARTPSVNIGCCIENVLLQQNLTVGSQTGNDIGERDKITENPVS

[2] = molecular target: T1, human ICOS-L ectodomain (residues …); experiment: BLI
[3] = molecular target: T2, human ICOS-L ectodomain (residues 19-248), His-tagged, immobilised on Ni-NTA biosensors (human, UniProt O75144); experiment: BLI; His-tagged ICOS or ICOS-L on Ni-NTA biosensors, Fabs as analytes (prezalumab 1:2 serial dilutions from 31 nM); PBS pH 7.4, 0.01% BSA, 0.002% Tween; 1:1 fit; details: both partners purified
T2 construct: also called ICOS ligand; CD275; source: HEK 293F, transiently transfected, purified from the supernatant (HisTrap Ni-NTA); not shown: His6, C-terminal, kept

[4] = molecular target: T3, human ICOS-L ectodomain (residues 19-248), crystallised in complexes (human, UniProt O75144); experiment: crystal structure; ICOS-L/prezalumab Fab/VNAR complex, co-expressed and co-purified, 3.15 A; 0.2 M di-ammonium tartrate, 20% PEG 3350; details: both partners purified
T3 construct: not shown: Venus (monomeric variant), C-terminal, cleaved; His6, C-terminal, cleaved

[5] = molecular target: T4, human ICOS-L ectodomain (residues 19-248), crystallised in complexes (human, UniProt O75144 19-248); experiment: crystal structure; ICOS (21-129)/ICOS-L (19-248)/VNAR complex, co-expressed and co-purified, 3.3 A; 0.1 M HEPES pH 7.0, 30% Jeffamine ED-2001; details: both partners purified
T4 construct: not shown: Venus (monomeric variant), C-terminal, cleaved; His6, C-terminal, cleaved
T4 sequence (looked up): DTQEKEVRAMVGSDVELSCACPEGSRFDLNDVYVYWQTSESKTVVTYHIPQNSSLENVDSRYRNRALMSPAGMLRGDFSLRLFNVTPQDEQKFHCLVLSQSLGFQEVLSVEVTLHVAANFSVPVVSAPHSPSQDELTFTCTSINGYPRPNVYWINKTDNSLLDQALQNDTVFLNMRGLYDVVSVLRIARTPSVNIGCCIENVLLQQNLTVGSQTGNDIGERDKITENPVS

[6] = molecular target: T5, human ICOS-L ectodomain (residues 19-248), untagged monomer (human, UniProt O75144 19-248); experiment: BLI; His-tagged ICOS on Ni-NTA biosensors (0.8 nm), untagged ICOS-L as analyte, 1:2 serial dilutions from 500 nM; PBS pH 7.4, 0.01% BSA, 0.002% Tween; 180 s association and dissociation; 1:1 fit; details: both partners purified
T5 construct: Residues of the TEV site probably remain at the C-terminus after cleavage; also called ICOS-L ectodomain monomer; CD275; source: HEK 293F, transiently transfected, purified (HisTrap Ni-NTA, TEV digestion, second Ni-NTA, Superdex 200); not shown: Venus (monomeric variant), C-terminal, cleaved; His6, C-terminal, cleaved
T5 sequence (looked up): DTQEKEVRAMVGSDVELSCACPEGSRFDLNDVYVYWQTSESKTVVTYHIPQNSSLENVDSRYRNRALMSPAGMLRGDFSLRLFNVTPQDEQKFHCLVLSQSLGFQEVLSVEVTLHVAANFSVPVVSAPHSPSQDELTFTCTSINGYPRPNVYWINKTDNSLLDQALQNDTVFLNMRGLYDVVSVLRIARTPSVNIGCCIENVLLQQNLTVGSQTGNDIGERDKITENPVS

- koff [1]: 0.0045 s⁻¹
- Kd [2]: 5.5 nM
- binding result [3]: binds
B1: prezalumab Fab (purified, for BLI) (Fab, V domains shown)
VH: EVQLVESGGGLVQPGGSLRLSCAASGFTFSSYWMSWVRQAPGKGLEWVAYIKQDGNEKYYVDSVKGRFTISRDNAKNSLYLQMNSLRAEDTAVYYCAREGILWFGDLPTFWGQGTLVTVSS
VL: DIQMTQSPSSLSASVGDRVTITCRASQGISNWLAWYQQKPEKAPKSLIYAASSLQSGVPSRFSGSGSGTDFTLTISSLQPEDFATYYCQQYDSYPRTFGQGTKVEIK
notes: Fab heavy chain of prezalumab; Fab light chain of prezalumab; Purified on KappaSelect; also called humanized monoclonal anti ICOS-L antibody; source: HEK 293F, transiently co-transfected LC and HC, purified (KappaSelect, MonoS, Superdex 200)

- binding result [4]: binds
B2: prezalumab Fab (co-expressed with ICOS-L and VNAR, for the crystal structure) (Fab, V domains shown)
VH: EVQLVESGGGLVQPGGSLRLSCAASGFTFSSYWMSWVRQAPGKGLEWVAYIKQDGNEKYYVDSVKGRFTISRDNAKNSLYLQMNSLRAEDTAVYYCAREGILWFGDLPTFWGQGTLVTVSS
VL: DIQMTQSPSSLSASVGDRVTITCRASQGISNWLAWYQQKPEKAPKSLIYAASSLQSGVPSRFSGSGSGTDFTLTISSLQPEDFATYYCQQYDSYPRTFGQGTKVEIK
notes: as the heavy chain of m14; as the light chain of m14; source: HEK 293S (Gnt I-/-), co-transfected with ICOS-L and VNAR, complex purified

- stoichiometry N [5]: 1
B3: human ICOS ectodomain (residues 21-129), crystallised with ICOS-L and VNAR (domain or fragment, UniProt Q9Y6W8 21-129, looked up)
chain: EINGSANYEMFIFHNGGVQILCKYPDIVQQFKMQLLKGGQILCDLTKTKGSGNTVSIKSLKFCHSQLSNNSVSFFLYNLDHSHANYYFCNLSIFDPPPFKVTLTGGYLH
modifications: N-linked glycan at N110 seen in the structure (two GlcNAc and three mannose residues)
notes: not shown: Venus (monomeric variant), C-terminal, cleaved; His6, C-terminal, cleaved

- Kd [6]: 722 nM
- koff [6]: 0.16 s⁻¹
B4: human ICOS ectodomain (residues 21-138), His-tagged, immobilised on Ni-NTA biosensors (receptor, UniProt Q9Y6W8 21-138, looked up)
chain: EINGSANYEMFIFHNGGVQILCKYPDIVQQFKMQLLKGGQILCDLTKTKGSGNTVSIKSLKFCHSQLSNNSVSFFLYNLDHSHANYYFCNLSIFDPPPFKVTLTGGYLHIYESQLCCQ
notes: human ICOS ectodomain, UniProtKB Q9Y6W8, residues 21-138, followed by a TEV cleavage site; The His6 tag of the vector lies C-terminal of TEV site and Venus, so the His-tagged form used for loading is probably the undigested ICOS-TEV-Venus-His6 fusion; also called inducible T-cell co-stimulator; CD278; source: HEK 293F, transiently transfected, purified from the supernatant (HisTrap Ni-NTA); not …
